# In US20020146750A1 (published 2002):
# Molecular target: T1, MUC1 60-mer peptide NH2-(…)3-COOH (biotinylated in the ELISAs and selections)
# T1 construct: also called biotinylated MUC1 60-mer
# Test: ELISA, soluble Fab, biotinylated MUC1 60-mer; relative signal
# Procedure: Soluble Fabs were produced as described (Roovers et al., Br. J. Cancer, 78: 1407-16 (1998)). ELISAs were performed as described by Henderikx et al. (Cancer Res., 58: 4324-4332 (1998)), except the biotinylated MUC1 60-mer was used. The selected PH1 and the affinity-matured antibodies were evaluated for affinity by surface plasmon resonance (SPR) on a BIAcore 2000 apparatus (BIAcore AB, Uppsala, Sweden). Channels of a biotin chip were coated with a MUC1 15-mer, containing the minimal PH1 epitope, PAP, (Ac-PDTRPAPGSTAPPAL-NH₂, (SEQ ID NO:40) 50 RU or 320 RU) or a 60-mer (NH₂-([…])₃-COOH (i.e., containing three copies of SEQ ID NO:8 (von Mensdorff-Pouilly et al., Tumor Biol., 19: 186-195 (1998), 50 RU) in HBS-EP buffer (Pharmacia). One surface was blocked with biotin (15 RU) and used as a negative control. The antibodies were injected in HBS-EP buffer. To minimize rebinding of the antigen binding fragments, the flow speed was 30 μl/sec. Affinity calculation was performed with the BIA-evaluation software provided by the BIAcore. The affinities of the Fabs were calculated according to a 1:1 stoichiometry at steady state.
# T1 sequence (peptide, as listed by the source): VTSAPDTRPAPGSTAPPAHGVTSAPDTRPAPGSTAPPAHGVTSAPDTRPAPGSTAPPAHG
row,Binder,binding result
1,"6B5 (Fab, V domains shown, PH1 Fab variant) VH: QVQLVQSGGGLVQPGGSLRLSCAASGFTFRSNAMGWVRQAPGKGLEWVSGISGSGGSTYYADSVKGRFTISRDNSKNTLYLQMNSLRAEDTAVYYCAKHTGGGVWDPIAYWGQGTLVTVSS VL: EIVLTQSPLSLPVTPGEPASISCRSSQSLLHSNGYTYLDWYLQKPGQSPQLLIYSGSHRASGVPDRFSGSVSGTDFTLRISRVEAEDVGVYYCMQGLQSPFTFGPGTKVDIKR",binds
2,"6C10 (Fab, V domains shown, PH1 Fab variant) VH: QVQLVQSGGGLVQPGGSLRLSCAASGFTFRSNAMGWVRQAPGKGLEWVSGISGSGGSTYYADSVKGRFTISRDNSKNTLYLQMNSLRAEDTAVYYCAKHTGGGVWDPIHYWGQGTLVTVSS VL: EIVLTQSPLSLPVTPGEPASISCRSSQSLLHSNGYTYLDWYLQKPGQSPQLLIYSGSHRASGVPDRFSGSVSGTDFTLRISRVEAEDVGVYYCMQGLQSPFTFGPGTKVDIKR",binds
3,"6E4 (Fab, V domains shown, PH1 Fab variant) VH: QVQLVQSGGGLVQPGGSLRLSCAASGFTFRSNAMGWVRQAPGKGLEWVSGISGSGGSTYYADSVKGRFTISRDNSKNTLYLQMNSLRAEDTAVYYCAKHTGGGVWDPVDYWGQGTLVTVSS VL: EIVLTQSPLSLPVTPGEPASISCRSSQSLLHSNGYTYLDWYLQKPGQSPQLLIYSGSHRASGVPDRFSGSVSGTDFTLRISRVEAEDVGVYYCMQGLQSPFTFGPGTKVDIKR",binds
4,"6C8 (Fab, V domains shown, PH1 Fab variant) VH: QVQLVQSGGGLVQPGGSLRLSCAASGFTFRSNAMGWVRQAPGKGLEWVSGISGSGGSTYYADSVKGRFTISRDNSKNTLYLQMNSLRAEDTAVYYCAKHTGGGVWDPINDWGQGTLVTVSS VL: EIVLTQSPLSLPVTPGEPASISCRSSQSLLHSNGYTYLDWYLQKPGQSPQLLIYSGSHRASGVPDRFSGSVSGTDFTLRISRVEAEDVGVYYCMQGLQSPFTFGPGTKVDIKR",binds
5,"6C5 (Fab, V domains shown, PH1 Fab variant) VH: QVQLVQSGGGLVQPGGSLRLSCAASGFTFRSNAMGWVRQAPGKGLEWVSGISGSGGSTYYADSVKGRFTISRDNSKNTLYLQMNSLRAEDTAVYYCVKHTGGGVWDPIVYWGQGTLVTVSS VL: EIVLTQSPLSLPVTPGEPASISCRSSQSLLHSNGYTYLDWYLQKPGQSPQLLIYSGSHRASGVPDRFSGSVSGTDFTLRISRVEAEDVGVYYCMQGLQSPFTFGPGTKVDIKR",binds
6,"6B6 (Fab, V domains shown, PH1 Fab variant) VH: QVQLVQSGGGLVQPGGSLRLSCAASGFTFRSNAMGWVRQAPGKGLEWVSGISGSGGSTYYADSVKGRFTISRDNSKNTLYLQMNSLRAEDTAVYYCAKHTGGGVWDPIGYWGQGTLVTVSS VL: EIVLTQSPLSLPVTPGEPASISCRSSQSLLHSNGYTYLDWYLQKPGQSPQLLIYSGSHRASGVPDRFSGSVSGTDFTLRISRVEAEDVGVYYCMQGLQSPFTFGPGTKVDIKR",binds
7,"7B5 (Fab, V domains shown, PH1 Fab variant) VH: QVQLVQSGGGLVQPGGSLRLSCAASGFTFRSNAMGWVRQAPGKGLEWVSGISGSGGSTYYADSVKGRFTISRDNSKNTLYLQMNSLRAEDTAVYYCAKHTGGGVWDPIAYWGQGTLVTVSS VL: EIVLTQSPLSLPVTPGEPASISCRSSQSLLHSNGYTYLDWYLQKPGQSPQLLIYSGSHRASGVPDRFSGSVSGTDFTLRISRVEAEDVGVYYCMQGLQSPFTFGPGTKVDIKR",binds
8,"6F4 (Fab, V domains shown, PH1 Fab variant) VH: QVQLVQSGGGLVQPGGSLRLSCAASGFTFRSNAMGWVRQAPGKGLEWVSGISGSGGSTYYADSVKGRFTISRDNSKNTLYLQMNSLRAEDTAVYYCSKHTGGGVWDPIGYWGQGTLVTVSS VL: EIVLTQSPLSLPVTPGEPASISCRSSQSLLHSNGYTYLDWYLQKPGQSPQLLIYSGSHRASGVPDRFSGSVSGTDFTLRISRVEAEDVGVYYCMQGLQSPFTFGPGTKVDIKR",binds
